Target: T1, C-terminally hexa-histidine (His6)-tagged VapC10 (toxin, PIN-domain protein, slr1767) of Synechocystis sp. … (Synechocystis sp. PCC 6803, UniProt P73045 1-112)
T1 construct: also called VapC10-His6; VapC-His6; not shown: His6, C-terminal, kept
T1 sequence (looked up): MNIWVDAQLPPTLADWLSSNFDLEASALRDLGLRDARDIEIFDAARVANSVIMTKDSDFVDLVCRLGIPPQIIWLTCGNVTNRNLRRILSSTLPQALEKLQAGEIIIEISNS
Assay: pull-down
Details: partners not purified

B1: VapB10 (antitoxin, COG2442-domain protein, ssr2962) of Synechocystis sp. PCC 6803 (natural protein, UniProt P73044 1-74, looked up)
chain: MNSLLSRITQTPGQCGGRPCIRGMRIRVSDILEMLAENVSTSEILEDFPDLEMADIQACLVFAARRTDFSRLTA
notes: source: E. coli BL21(DE3)(pJS653), co-expressed with VapC10-His6, in cleared lysate
  stoichiometry N: ~1 VapB10 per VapC10-His6
